The values that follow come from publication PMC3629177 (PLoS ONE, 2013).

Changes are numbered by the printed parent chain.

To fix the notation:
B1: HuMab 16_(L-40) (antibody, V domains shown)
VH: EVQLVQSGGGLGHPGGSLRLSCAGSGFTFSSYSMHWLRQAPGKGLKWVSAIGTAGGTYYADSVKGRFTISRDNAKNSFYLQMNSLRAEDMAVYYCAREYFFGSGNYGYWGQGTLVTASS
VL: not shown
B2: HuMab 37_(L-63) (cloned, IgG1) (antibody, V domains shown)
VH: EVQLVQSGGGLVHPGGSLRLSCAGSGFTFSRYALHWVRQAPGKGLEWVSAIGIGGGTFYADSVKGRFTISRDNAKNSLYLQMNSLRAEDMAVYYCARDTYYDFFDAFDIWGQGTMVTVSS
VL: DIQMTQSPSSLSASVGDRVTITCRASQGISSWLAWYQQKPEKAPKSLIYAASSLQSGVPSRFSGSGSGTDFTLTISSLQPEDFATYYCQQYDSYPLTFGGGTKVEIK
B3: HuMab 56c (antibody, V domains shown)
VH: QVQVVQSGAEVKKPGSSVKVSCKASGGTFSSYAISWVRQAPGQGLEWMGRIIPILGTAKYAQKFQGRVTIIADKSTSTAYMELSSLRSEDTAVYYCARDQDYYGMDVWGQGTTVTVSS
VL: B2 VL with L11V, Q38H, E41G, S46L, Y91T, D92N, S93N, Y94F, L96W, G100Q
B4: HuMab 11_(L-80) (antibody, V domains shown)
VH: QVQLVESGGGVVQPGRSLRLSCAASGFTFSNYGIHWVRQAPGKGLEWVAIIWHDGSNSYYVDSVKGRFTMSRDNSKNTVYLQMNSLRAEDTAVYFCARIIGGAFDIWGQGTMVTVSS
VL: B2 VL with D92N, L96I, G100Q, K103R, V104L
B5: HuMab 33_(L-112) (antibody, V domains shown)
VH: EVQLVESGGGLVQPGGSLRLSCAASGFTFSRYWMSWVRQAPGKGLEWMANIKQDGSETHYVDSVKGRFTISRDNAKNSLYLQMNSLRAEDTAVYYCAIGDYWGQGTLVTVSS
VL: B2 VL with G28D, D92K
B6: HuMab 22c (antibody, V domains shown)
VH: QVQLVESGGGVVQPGRSLRLSCAASGFTFRSYGMHWVRQAPGKGLEWVTLIWYDGSNKYYADSVKGRFTISRDNSKNTLYLQMNSLRVEDTAVYYCAREGFNWDAFDIWGQGTMVTVSS
VL: EIVLTQSPGTLSLSPGERATLSCRASQSVRISYLAWYQQKPGQAPRLLIYGTFSRATGIPDRFSGSGSGTDFTLTISRLEPEDFAVYYCQQYGSSMYTFGQGTKLEIK
B7: HuMab 155c (antibody, V domains shown)
VH: EVQLVQSGAEVKKPGESLKISCKGSGYSFTSYWIGWVRQMPGKGLEWMGIIYPGDSDTRYSPSFQGQVTISADKSISTAYLQWSSLKASDTAMYYCARQGSGWYGNYFDYWGQGTLVTVSS
VL: B6 VL with V29F, R30S, I31R, S32G, T52A, F53S, A56V, G93D, M96P

This assay concerns the target T1, hSOD1-A4V-myc (Homo sapiens, UniProt P00441, point mutant).
T1 construct: human SOD1 with the ALS mutation A4V; source: HEK-293T/17, transiently transfected (pcDNA), in lysate; not shown: myc, C-terminal, kept
Briefly: co-IP; soluble lysate of transfected HEK-293T/17 cells (PBS + 0.1% Triton X-100) immunoprecipitated with 2 µg HuMab and protein A sepharose; immunoblot with anti-myc 9E10. The following applies: one partner purified.
For the molecule B1, the binding result is listed as “binds”. In the case of B2 it was “binds”; in that of B3, “binds”. In the case of B4 it was “binds”. Then B5, with “binds”; and B6, with “binds”; and B7, with “binds”.
